Results published in the supplement of paper PMC10567573.
± gives the standard deviation.

Experiment: protein stability index of a GFP-peptide fusion (GPS, HEK-293T) (PSI 1-6); higher = more stable
[1] = treatment: DMSO, c terminus: a fixed tail appended
[2] = treatment: MLN4924 1 uM, 8 h, c terminus: a fixed tail appended
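Also: 24-mer peptide tiles fused after GFP, lentivirally expressed, FACS-sorted into six equal bins by GFP/DsRed ratio, decoded by Illumina sequencing, PSI is the read-weighted mean bin number.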

Row | Sequence | protein stability index [1] | protein stability index [2] | protein stability index (treatment: DMSO, c terminus: native) | protein stability index (treatment: MLN4924 1 uM, 8 h, c terminus: native)
1 | PEEPSAEDSINNSLVQLQASHQQQ [MYBL2] | 5.62 ± 0.18 | 5.55 ± 0.16 |  | 
2 | LSLLELLELLLDASALTLVLGGRR [SCNN1D] | 2.99 ± 0.95 | 2.32 ± 0.56 |  | 
3 | RYAVVLNATWLVNSAAHLFGYRPY [SCD] | 2.9 ± 0.65 | 3.05 ± 0.47 |  | 
4 | LWASQREKEVLRRERAVEWRERAV [ZBED2] | 3.15 ± 0.44 | 3.38 ± 0.11 |  | 
5 | KKQTKVEFPEARIFEETLNILIYE [KCTD13] | 2.16 ± 0.2 | 2.44 ± 0.5 |  | 
6 | HCAAVTPAGCMYIHGGVVNIHENK [KLHDC10] | 2.86 ± 0.098 | 3.12 ± 0.49 |  | 
7 | GLPGPEAARSGDAAANKLFHYIPG [PLEKHN1] | 3.93 ± 0.38 | 4.15 ± 0.42 |  | 
8 | WFGASVLSLLELLELLLDASALTL [SCNN1D] | 2.54 ± 0.74 | 2.15 ± 0.31 |  | 
9 | GYSTPADIWSTACMAFELATGDYL [SRPK2] | 2.1 ± 0.33 | 2.54 ± 0.5 |  | 
10 | VTEDLRLKDWEHSIALRNISLAKG [SCARA5] | 3.5 ± 0.26 | 3.59 ± 0.39 |  | 
11 | SSTGNTALTYACAGGYVDVVKVLL [ANKRD17] | 2.07 ± 0.55 | 2.23 ± 0.3 |  | 
12 | DILWEHLEQMIKENQEKTEDQYEE [ETS2] | 5.02 ± 0.21 | 5.22 ± 0.2 |  | 
13 | HLMPFRQHCRQSLASRIRSNKKML [KLHL14] | 2.39 ± 0.11 | 2.34 ± 0.1 |  | 
14 | GRATKRRKKSGDLKKAKVQVERMR [FBXO34] | 4.25 ± 0.072 | 4.26 ± 0.65 |  | 
15 | RQMHLARFLRMLLRLADEFGVAVV [RAD51] | 2.55 ± 0.41 | 2.68 ± 0.28 |  | 
16 | TLAQTISEAAIGGAMLGQTTSEEA [HDAC6] | 4.66 ± 0.32 | 4.78 ± 0.28 |  | 
17 | APSCAIMISTYEFGKSFFQRLNQD [SLC25A39] | 2.47 ± 0.86 | 2.06 ± 0.33 |  | 
18 | SAKDGGPQPPDAPQLVSSAREGSS [PLEKHN1] | 5.49 ± 0.19 | 5.39 ± 0.17 |  | 
19 | FSDPSQSDPETKDFWLNMAALTEA [FCHO1] | 3.4 ± 0.47 | 3.79 ± 0.37 |  | 
20 | VGYTALVGSDAESWGWDLGRSRLY [SPSB4] | 2.21 ± 0.076 | 2.56 ± 0.48 |  | 
21 | GLDPCLLEDELDKSVQGTGLAFIA [SLC6A17] | 3.28 ± 0.31 | 3.28 ± 0.44 |  | 
22 | CPKYKFISCPTCRRETVLFTDYGL [RNF208] | 2.28 ± 0.25 | 2.25 ± 0.21 |  | 
23 | IEDFQQKILLTKSENARLVLQIDN [KRT36] | 2.79 ± 0.25 | 2.8 ± 0.23 |  | 

Row | Sequence | protein stability index [1] | protein stability index [2] | protein stability index (treatment: DMSO, c terminus: native) | protein stability index (treatment: MLN4924 1 uM, 8 h, c terminus: native)
24 | FQDKRNLYLIMEFLPGGDMMTLLM [STK38L] | 3.34 ± 0.31 |  |  | 
25 | DVALVLTVLLEEETLEASVGPRET [TOR1AIP2] | 2.49 ± 0.51 | 2.27 ± 0.31 |  | 
26 | RIDGKLDSPSRSPSKVEVTEKTTT [C2CD2L] | 5.42 ± 0.21 | 5.46 ± 0.11 |  | 
27 | FPGRPMGHLSKDVDENDSHEGEDQ [DLC1] | 4.7 ± 0.38 | 5.06 ± 0.31 |  | 
28 | SRIYGQAMAIINGSLYVFGGTTGY [KLHDC10] | 2.92 ± 0.3 | 2.87 ± 0.6 |  | 
29 | GQYRANEGTSSIVMEIQKQIEKKE [TAF7L] | 5.06 ± 0.35 | 5.16 ± 0.46 |  | 
30 | ELPNIKREISETEAKALLKERQKK [TFE3] | 3.26 ± 0.7 | 4.19 ± 0.57 |  | 
31 | LPGNEEFQVVKDAVLDCLLDFLPK [TENT5D] | 2.32 ± 0.39 | 2.4 ± 0.21 |  | 
32 | FKRTIQGSIEYSCPASNECEITKR [ESRRA] | 3.88 ± 0.23 | 4.19 ± 0.23 |  | 
33 | REMSKTFIIGELHPDDRPKLNKPP [CYB5A] | 3.95 ± 0.23 | 4.05 ± 0.28 |  | 
34 | RSKESKDCSGLVLLCLFFGIPWEA [PCDHGA10] | 3.15 ± 0.37 | 2.48 ± 0.61 |  | 
35 | RTQEEKLEHVRALIKKYSDHLENV [TRIM55] | 3.24 ± 0.31 | 3.56 ± 0.27 |  | 
36 | ALKDNKSPLHLVQMPPVIVETARS [PI4K2A] | 3.8 ± 0.29 | 3.82 ± 0.29 |  | 
37 | SVLMGHGVCMGLVAAACACGFTVA [OR10K2] | 2.9 ± 0.45 | 3.08 ± 0.41 |  | 
38 | PNGSAAEPPTEAASREENQAGPEA [PALM] | 5.56 ± 0.35 | 5.4 ± 0.25 |  | 
39 | LVHTQEPGEWLELLLEPGSLYILR [ALKBH7] | 2.38 ± 1 | 2.23 ± 0.28 |  | 
40 | RSSEFYRVTTEQYQKAAEEVEAKF [CHCHD3] | 4.88 ± 0.32 | 4.78 ± 0.074 |  | 
41 | NENDFYDGAWCAGRNDLQQWIEVD [CPXM2] | 4.22 ± 0.46 | 4.05 ± 0.3 |  | 
42 | ELKTKLTKLEAEIVTLRHVLAAKE [TPD52L3] | 3.44 ± 0.27 | 3.64 ± 0.23 |  | 
43 | SLRKSNTLCDVTLRVEQKDFPAHR [KLHL12] | 3.58 ± 0.3 | 3.91 ± 0.38 |  | 
44 | DSVSVNDIDLSLYIPRDVDETGIT [ZC3H15] | 3.76 ± 0.15 | 4.36 ± 0.11 |  | 
45 | VNVTIHFRLKTINLQSLINNEIPD [MCOLN1] | 3.28 ± 0.25 | 3.21 ± 0.25 |  | 
46 | EPLYNWQATKASLKERFAFLFNSE [BTBD1] | 2.97 ± 0.22 | 2.78 ± 0.37 |  | 

Row | Sequence | protein stability index [1] | protein stability index [2] | protein stability index (treatment: DMSO, c terminus: native) | protein stability index (treatment: MLN4924 1 uM, 8 h, c terminus: native)
47 | KRKKLSTWKQELLKLMDRHKKDCA [ZNF75A] | 2.7 ± 0.15 | 2.83 ± 0.21 |  | 
48 | RQIVSGLKYLHEQEILHRDLKLGN [PLK2] | 2.52 ± 0.21 | 2.7 ± 0.48 |  | 
49 | LQPLSKPLSSQPQAIVTEDKTDIS [MLH1] | 5.31 ± 0.19 | 5.19 ± 0.14 |  | 
50 | RWPFDHNDFGVFLCKLFPFLQKSS [EDNRA] | 2.2 ± 0.19 | 2.05 ± 0.38 |  | 
51 | ASPSSSVRLGSFRSPRAGAGALLR [PRPH] | 3.65 ± 0.26 | 3.81 ± 0.19 |  | 
52 | RQDPRPHGPQLPTGIEGNWGRLLE [ZBED2] | 3.68 ± 0.2 | 3.54 ± 0.32 |  | 
53 | GELGSIGDHERAIDFSPYLEPLGA [CEBPB] | 4.21 ± 0.6 | 4.18 ± 0.32 |  | 
54 | PMPWLVLSEIFPGGIRGRAMALTS [SLC2A12] | 2.5 ± 0.16 | 2.33 ± 0.38 |  | 
55 | ASLAAAKKQLADETLLKVDLENRC [LMNB1] | 4.35 ± 0.12 | 4.46 ± 0.24 |  | 
56 | VQRLQAYTATEQEMQQQMSLGELC [TRIM14] | 4 ± 0.077 | 3.9 ± 0.21 |  | 
57 | EILSESVVPDVRSVVTTARMQVLK [SMARCE1] | 2.87 ± 0.56 | 2.54 ± 0.38 |  | 
58 | TSIEEGYERSFIHKIKHKHILAKN [IQUB] | 3.14 ± 0.16 | 3.29 ± 0.55 |  | 
59 | KKNSNMTYEKLSRAMRYYYKREIL [ELF3] | 2.33 ± 0.25 | 2.27 ± 0.47 |  | 
60 | FRHLRLQYIISDLASARIIEQDAV [GMCL1] | 2.6 ± 0.73 | 2.44 ± 0.48 |  | 
61 | LPLERDAESFLLKSPIAPCSLDKR [CDC25B] | 4.35 ± 0.18 | 4.35 ± 0.15 |  | 
62 | SYSSCGDFHYCDREHVCRKDQRNP [RBMY1A1] | 4.06 ± 0.41 | 4.09 ± 0.1 |  | 
63 | KHIPYREHKSLTGTARYMSINTHL [CSNK1G3] | 2.41 ± 0.088 | 2.51 ± 0.32 |  | 
64 | NIVNLLTTCSTPLLNSPPSFVCWS [AUP1] | 3.2 ± 0.56 | 2.78 ± 0.47 |  | 
65 | SDSMTDVPVDTGVAARTPAVEGLT [TPD52L2] | 5.3 ± 0.29 | 5.26 ± 0.15 |  | 
66 | MDDPKGDFITLYQMASQSSASHYK [M1AP] | 3.27 ± 0.25 | 3.31 ± 0.22 |  | 
67 | NHFDMHRVGKWHQDFPVKKRKKLS [ZNF75A] | 3.56 ± 0.24 | 3.92 ± 0.076 |  | 
68 | QRYEHGRTLKSYLGLTNQSRRYNR [ZNF649] | 3.39 ± 0.21 | 3.59 ± 0.29 |  | 
69 | VLSNMEKLFCIPVHGIRSVGTAAV [IMPA1] | 2.09 ± 0.47 | 2.12 ± 0.059 |  | 

Row | Sequence | protein stability index [1] | protein stability index [2] | protein stability index (treatment: DMSO, c terminus: native) | protein stability index (treatment: MLN4924 1 uM, 8 h, c terminus: native)
70 | STSLSFLDSCNSLTPKSTPVKTLP [MYBL2] | 3.9 ± 0.13 | 3.97 ± 0.36 |  | 
71 | HIENGPFSLEQQLDDEDDDEEDCP [SRPK2] | 5.44 ± 0.4 | 5.46 ± 0.2 |  | 
72 | KHAAFVTPDQKYSMDNTPHTPTPF [MYBL2] | 3.84 ± 0.25 | 3.84 ± 0.35 |  | 
73 | QLEKPKPVKPVTFSTGIKMGQHIS [MNAT1] | 3.36 ± 0.15 | 3.44 ± 0.41 |  | 
74 | LEATVKKLEESKQLLKNNEKLITW [SASS6] | 2.73 ± 1.2 | 3.44 ± 0.62 |  | 
75 | VVVESMEQDRIPEVHVPPSSAVSG [MIA2] | 4.45 ± 0.36 | 4.48 ± 0.2 |  | 
76 | SHLCSCLAMLALLSPLSLAQYDSW [LOXL2] | 3.02 ± 0.29 | 2.96 ± 1.2 |  | 
77 | VLSLKEGAREEDLDAVEAQIGCKL [FBXO3] | 5.24 ± 0.49 | 4.6 ± 0.25 |  | 
78 | YNILKTCRGHTLERSVFSERTEES [CARM1] | 2.56 ± 0.5 | 2.56 ± 0.6 |  | 
79 | TVDKCFGRKKYDIDPRNGIPKLTP [SPATS1] | 3.45 ± 0.36 | 3.51 ± 0.23 |  | 
80 | NSTPLRAACFDGRLDIVKYLVENN [FEM1B] | 2.84 ± 0.19 | 3.01 ± 0.21 |  | 
81 | DVAGNLDYKALSYVITHGEEKEE [MYL5] |  |  | 2.62 ± 0.7 | 3.56 ± 1.1
82 | IYNGGVEAVSTLLGAVAVFAVGYI [SLC19A2] | 2.37 ± 0.26 |  |  | 
83 | SSSVSISHSASATGNVCIEEIDVD [LMNB1] | 5.38 ± 0.15 | 5.4 ± 0.21 |  | 
84 | YIPSSYVDSHHEYPAMTFYSPAVM [ESR2] | 2.73 ± 0.93 | 2.6 ± 0.45 |  | 
85 | GFFSSAFQARLSGNNLHNASIPEH [POMT2] | 2.81 ± 0.44 | 3.07 ± 0.35 |  | 
86 | SLMDLAIEEGFNPVQASQLEEEFD [NFE2L1] | 5.35 ± 0.35 | 5.49 ± 0.12 |  | 
87 | EEMWTFRGKIHAFRGQILGFWEEE [CCDC70] | 2.15 ± 0.41 | 2.35 ± 0.26 |  | 
88 | AIYFTAYDQLKAFLCGRALTSDLY [SLC25A39] | 3.35 ± 0.83 | 3.37 ± 0.57 |  | 
89 | SMAMEYFDEKIVPILKRKLPGSDV [FBXO28] | 3 ± 0.22 | 3.25 ± 0.073 |  | 
